Experimental data taken from patent US20130071921A1 (Pfizer, published 2013).

Tests used:
[1] = target: T1, recombinant human Dkk4 (R&D systems Cat No. 1269-DK/CF) (human, UniProt Q9UBT3 19-224); test: SPR BIAcore, huMabJC18 captured by goat Fab2 anti-human Fc, hDkk-4 titrated from 76.3 nM
T1 construct: Bought; also called hDkk-4
T1 sequence (looked up): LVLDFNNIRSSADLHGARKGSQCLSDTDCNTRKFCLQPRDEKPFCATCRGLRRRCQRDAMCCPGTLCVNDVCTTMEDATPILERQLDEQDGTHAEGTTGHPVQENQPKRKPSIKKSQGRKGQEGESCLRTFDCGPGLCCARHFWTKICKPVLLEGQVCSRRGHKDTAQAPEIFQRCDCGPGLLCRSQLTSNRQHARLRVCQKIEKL

Cynomolgous monkey Dkk-1 [2] = target: T2, Cynomolgous monkey Dkk-1 (cynomolgous monkey); test: TMDD PK/PD model fit to monkey serum data in vivo; derived as Koff/Kon
[3] = target: T3, Recombinant human Dkk-1 (R&D Systems cat no. 1096-DK/CF), 10xHis tag at the C terminal (human, UniProt O94907 32-266); test: SPR (Table 4, headed 37C, BIAcore or ProteOn)
T3 construct: the actual N-terminus of the purified protein is marked in bold italic after residue 30, but the mark is an image lost in the text; also called rhuDkk-1; hDkk-1
T3 sequence: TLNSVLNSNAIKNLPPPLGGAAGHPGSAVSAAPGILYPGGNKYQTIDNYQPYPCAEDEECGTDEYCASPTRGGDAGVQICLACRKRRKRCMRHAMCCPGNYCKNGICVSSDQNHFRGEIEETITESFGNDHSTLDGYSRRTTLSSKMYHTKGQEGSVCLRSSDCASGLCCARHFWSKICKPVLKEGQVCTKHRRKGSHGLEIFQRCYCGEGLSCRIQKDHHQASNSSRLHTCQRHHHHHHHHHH

[4] = target: T4, recombinant mouse Dkk-1 (R&D systems Cat No. 1765-DK/CF) (mouse, UniProt O54908 32-272); test: SPR BIAcore 3000, CM5 chip (Table 8)
T4 construct: Bought
T4 sequence (looked up): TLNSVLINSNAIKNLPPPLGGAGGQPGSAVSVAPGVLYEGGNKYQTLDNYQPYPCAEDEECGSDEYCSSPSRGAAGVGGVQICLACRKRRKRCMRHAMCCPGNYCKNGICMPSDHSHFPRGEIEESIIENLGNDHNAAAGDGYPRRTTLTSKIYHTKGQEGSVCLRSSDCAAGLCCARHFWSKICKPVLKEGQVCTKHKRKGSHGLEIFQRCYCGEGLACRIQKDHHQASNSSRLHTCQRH

Cynomolgous monkey Dkk-1 [5] = target: T2, Cynomolgous monkey Dkk-1; test: SPR BIAcore 3000, CM5 chip (Table 8)
[6] = target: T5, recombinant rat Dkk-1 (R&D systems Cat No. 4010-DK/CF) (rat); test: SPR BIAcore 3000, CM5 chip (Table 8)
T5 construct: Bought

[7] = target: T3, Recombinant human Dkk-1 (R&D Systems …); test: SPR BIAcore 3000, CM5 chip (Table 8)
[8] = target: T4, recombinant mouse Dkk-1 (R&D systems …); test: method not given
[9] = target: T3, Recombinant human Dkk-1 (R&D Systems …); test: method not given
[10] = target: T5, recombinant rat Dkk-1 (R&D systems Cat …); test: TMDD PK/PD model fit to rat serum data in vivo; derived as Koff/Kon
[11] = target: T3, Recombinant human Dkk-1 (R&D Systems …); test: SPR (Table 4, headed 37C, BIAcore or ProteOn); 37 C per caption of Table 4

B1: huMabJC18, fully humanized anti-Dkk-1 monoclonal antibody (antibody, human IgG2, kappa, V domains shown)
VH: EVQLVESGGGLVQPGGSLRLSCAASGFTFSSYAISWVRQAPGKGLEWVASVSGTGLGFQTYYPDSVKGRFTISRDNAKNSLYLQMNSLRAEDTAVYYCATSLENYAFDYWGQGTTVTVSS
VL: EIVLTQSPATLSLSPGERATLSCRASESVDDFGISFINWYQQKPGQAPRLLIYAGSKQGSGIPARFSGSGSGTDFTLTISSLEPEDFAVYYCQQLKEVPPTFGGGTKVEIKR
notes: IgG2(delta a: A329S, P330S), kappa; also called huMabJC18 IgG
**Q.** How did the Kd [1] turn out when B1 was run?
**A.** 11 nM

**Q.** And the T1/2 [1]?
**A.** 1.12 h

**Q.** And the koff [1]?
**A.** 0.000172 s⁻¹

**Q.** And the kon [1]?
**A.** 15000 M⁻¹ s⁻¹

**Q.** What about the Kd (Cynomolgous monkey Dkk-1 [2]) of the same binder?
**A.** 0.0513 nM

**Q.** What about the Kd [3] of the same binder?
**A.** < 0.002 nM

**Q.** What about the koff [3] of the same binder?
**A.** < 2e-06 s⁻¹

**Q.** What about the Kd [4] of the same binder?
**A.** < 0.03 nM

**Q.** What about the T1/2 [4] of the same binder?
**A.** > 4.94 h

**Q.** What about the koff [4] of the same binder?
**A.** < 3.9e-05 s⁻¹

**Q.** And the kon [4]?
**A.** > 1.3e+06 M⁻¹ s⁻¹

**Q.** And the T1/2 (Cynomolgous monkey Dkk-1 [5])?
**A.** > 5 h

**Q.** What about the koff (Cynomolgous monkey Dkk-1 [5]) of the same binder?
**A.** < 6e-05 s⁻¹

**Q.** What about the Kd [6] of the same binder?
**A.** < 0.1 nM

**Q.** And the T1/2 [6]?
**A.** 0.92 h

**Q.** What about the koff [6] of the same binder?
**A.** 0.00021 s⁻¹

**Q.** What about the kon [6] of the same binder?
**A.** > 1.3e+06 M⁻¹ s⁻¹

**Q.** What about the Kd [7] of the same binder?
**A.** < 0.002 nM

**Q.** What about the T1/2 [7] of the same binder?
**A.** > 96.3 h

**Q.** What about the koff [7] of the same binder?
**A.** < 2e-06 s⁻¹

**Q.** What about the kon [7] of the same binder?
**A.** > 1.3e+06 M⁻¹ s⁻¹

**Q.** What about the “fold increase in affinity against the parent mouse antibody JC18” value [8] of the same binder?
**A.** > 100 fold

**Q.** What about the “fold increase in affinity against the parent mouse antibody JC18” value [9] of the same binder?
**A.** > 100 fold

**Q.** And the Kd [10]?
**A.** 0.0348 nM

**Q.** What about the kon [11] of the same binder?
**A.** > 1.36e+06 M⁻¹ s⁻¹
